# Measured values: paper PMC9482650, “Quantitative fragmentomics allow affinity mapping of interactomes” (Nature Communications, 2022)
# Target: T1, MPP7, Q5T2T1
# T1 sequence (Q5T2T1 134-230, limits assumed, looked up): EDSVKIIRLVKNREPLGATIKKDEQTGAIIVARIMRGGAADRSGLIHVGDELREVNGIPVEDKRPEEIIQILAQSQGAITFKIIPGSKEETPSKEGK
# Experiment: holdup assay
# Design: key: below the threshold = too weak to quantify, mostly under pKd 3.1 to 4
# Conditions: plain residues with an end cap or a label only (N-terminal biotin on a linker: ado-ado)
row,Binder,pKd
1,"RRLPGKETMA [GRIK2, Q13002]",below the threshold
2,"LGRSTPQSEV [DGKH, Q86XP1]",below the threshold

# Target: T2, GRIP1_7, Q9Y3R0
# T2 sequence (Q9Y3R0 999-1096, limits assumed, looked up): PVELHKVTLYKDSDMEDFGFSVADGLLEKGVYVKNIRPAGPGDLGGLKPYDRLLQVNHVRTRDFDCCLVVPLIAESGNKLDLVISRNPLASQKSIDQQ
# Experiment: holdup assay
# Design: key: below the threshold = too weak to quantify, mostly under pKd 3.1 to 4
# Conditions: plain residues with an end cap or a label only (N-terminal biotin on a linker: ado-ado)
row,Binder,pKd
1,"RRLPGKETMA [GRIK2, Q13002]",below the threshold
2,"LGRSTPQSEV [DGKH, Q86XP1]",below the threshold

# Target: T3, DVL3, Q92997
# T3 sequence (Q92997 244-331, limits assumed, looked up): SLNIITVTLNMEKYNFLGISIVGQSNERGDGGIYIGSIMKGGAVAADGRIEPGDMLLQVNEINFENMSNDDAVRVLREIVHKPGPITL
# Experiment: holdup assay
# Design: key: below the threshold = too weak to quantify, mostly under pKd 3.1 to 4
# Conditions: plain residues with an end cap or a label only (N-terminal biotin on a linker: ado-ado)
row,Binder,pKd
1,"RRLPGKETMA [GRIK2, Q13002]",below the threshold
2,"LGRSTPQSEV [DGKH, Q86XP1]",below the threshold

# Target: T4, MPP2, Q14168
# T4 sequence (Q14168 180-250, limits assumed, looked up): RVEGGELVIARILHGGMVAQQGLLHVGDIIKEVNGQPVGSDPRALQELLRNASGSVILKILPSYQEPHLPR
# Experiment: holdup assay
# Design: key: below the threshold = too weak to quantify, mostly under pKd 3.1 to 4
# Conditions: plain residues with an end cap or a label only (N-terminal biotin on a linker: ado-ado)
row,Binder,pKd
1,"RRLPGKETMA [GRIK2, Q13002]",below the threshold
2,"LGRSTPQSEV [DGKH, Q86XP1]",below the threshold

# Target: T5, APBA2_1, Q99767
# T5 sequence (Q99767 563-664, limits assumed, looked up): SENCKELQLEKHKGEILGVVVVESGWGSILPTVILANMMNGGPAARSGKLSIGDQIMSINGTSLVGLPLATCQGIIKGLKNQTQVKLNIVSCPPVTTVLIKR
# Experiment: holdup assay
# Design: key: below the threshold = too weak to quantify, mostly under pKd 3.1 to 4
# Conditions: plain residues with an end cap or a label only (N-terminal biotin on a linker: ado-ado)
row,Binder,pKd
1,"RRLPGKETMA [GRIK2, Q13002]",below the threshold
2,"LGRSTPQSEV [DGKH, Q86XP1]",below the threshold

# Target: T6, LNX2_2, Q8N448
# T6 sequence (Q8N448 334-432, limits assumed, looked up): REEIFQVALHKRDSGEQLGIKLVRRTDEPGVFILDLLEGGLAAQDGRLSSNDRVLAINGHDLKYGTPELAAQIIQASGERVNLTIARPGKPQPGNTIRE
# Experiment: holdup assay
# Design: key: below the threshold = too weak to quantify, mostly under pKd 3.1 to 4
# Conditions: plain residues with an end cap or a label only (N-terminal biotin on a linker: ado-ado)
row,Binder,pKd
1,"RRLPGKETMA [GRIK2, Q13002]",below the threshold
2,"LGRSTPQSEV [DGKH, Q86XP1]",below the threshold

# Target: LIMK2, P53671
# Experiment: holdup assay
# Design: key: below the threshold = too weak to quantify, mostly under pKd 3.1 to 4
# Conditions: plain residues with an end cap or a label only (N-terminal biotin on a linker: ado-ado)
# LIMK2, P53671, sequence (P53671 143-248): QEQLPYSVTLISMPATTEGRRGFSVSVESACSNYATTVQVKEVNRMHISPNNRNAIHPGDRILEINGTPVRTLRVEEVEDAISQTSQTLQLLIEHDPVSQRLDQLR
row,Binder,pKd
1,"RRLPGKETMA [GRIK2, Q13002]",below the threshold
2,"LGRSTPQSEV [DGKH, Q86XP1]",below the threshold

# Target: TJP1_2, Q07157
# Experiment: holdup assay
# Design: key: below the threshold = too weak to quantify, mostly under pKd 3.1 to 4
# Conditions: plain residues with an end cap or a label only (N-terminal biotin on a linker: ado-ado)
# TJP1_2, Q07157, sequence (Q07157 181-274): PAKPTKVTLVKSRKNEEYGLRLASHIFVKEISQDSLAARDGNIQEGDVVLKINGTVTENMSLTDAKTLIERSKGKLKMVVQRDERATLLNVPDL
row,Binder,pKd
1,"RRLPGKETMA [GRIK2, Q13002]",below the threshold
2,"LGRSTPQSEV [DGKH, Q86XP1]",below the threshold

# Target: T7, ARHGEF11, O15085
# T7 sequence (O15085 42-136, limits assumed, looked up): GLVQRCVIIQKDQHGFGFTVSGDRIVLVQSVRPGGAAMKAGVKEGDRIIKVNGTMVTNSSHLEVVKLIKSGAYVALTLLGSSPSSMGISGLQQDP
# Experiment: holdup assay
# Design: key: below the threshold = too weak to quantify, mostly under pKd 3.1 to 4
# Conditions: plain residues with an end cap or a label only (N-terminal biotin on a linker: ado-ado)
row,Binder,pKd
1,"RRLPGKETMA [GRIK2, Q13002]",below the threshold
2,"LGRSTPQSEV [DGKH, Q86XP1]",4.15

# Target: T8, SNTG1, Q9NSN8
# T8 sequence (Q9NSN8 52-150, limits assumed, looked up): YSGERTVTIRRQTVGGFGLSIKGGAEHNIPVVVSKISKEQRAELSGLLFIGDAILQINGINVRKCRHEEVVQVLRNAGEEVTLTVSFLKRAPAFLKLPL
# Experiment: holdup assay
# Design: key: below the threshold = too weak to quantify, mostly under pKd 3.1 to 4
# Conditions: plain residues with an end cap or a label only (N-terminal biotin on a linker: ado-ado)
row,Binder,pKd
1,"RRLPGKETMA [GRIK2, Q13002]",below the threshold
2,"LGRSTPQSEV [DGKH, Q86XP1]",3.96

# Target: HTRA2, O43464
# Experiment: holdup assay
# Design: key: below the threshold = too weak to quantify, mostly under pKd 3.1 to 4
# Conditions: plain residues with an end cap or a label only (N-terminal biotin on a linker: ado-ado)
# HTRA2, O43464, sequence (O43464 355-458): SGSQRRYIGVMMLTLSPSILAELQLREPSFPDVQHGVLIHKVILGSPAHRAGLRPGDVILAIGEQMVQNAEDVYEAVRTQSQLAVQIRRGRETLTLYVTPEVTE
row,Binder,pKd
1,"RRLPGKETMA [GRIK2, Q13002]",below the threshold
2,"LGRSTPQSEV [DGKH, Q86XP1]",below the threshold

# Target: MAST2, Q6P0Q8
# Experiment: holdup assay
# Design: key: below the threshold = too weak to quantify, mostly under pKd 3.1 to 4
# Conditions: plain residues with an end cap or a label only (N-terminal biotin on a linker: ado-ado)
# MAST2, Q6P0Q8, sequence (Q6P0Q8 1099-1202): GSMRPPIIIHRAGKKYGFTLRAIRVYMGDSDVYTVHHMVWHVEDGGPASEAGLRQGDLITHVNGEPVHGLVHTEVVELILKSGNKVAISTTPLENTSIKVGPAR
row,Binder,pKd
1,"RRLPGKETMA [GRIK2, Q13002]",below the threshold
2,"LGRSTPQSEV [DGKH, Q86XP1]",4.85

# Target: SCRIB_1, Q14160
# Experiment: holdup assay
# Design: key: below the threshold = too weak to quantify, mostly under pKd 3.1 to 4
# Conditions: plain residues with an end cap or a label only (N-terminal biotin on a linker: ado-ado)
# SCRIB_1, Q14160, sequence (Q14160 718-814): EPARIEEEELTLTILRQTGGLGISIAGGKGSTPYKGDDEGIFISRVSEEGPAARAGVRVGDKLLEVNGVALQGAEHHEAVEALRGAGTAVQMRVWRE
row,Binder,pKd
1,"RRLPGKETMA [GRIK2, Q13002]",below the threshold
2,"LGRSTPQSEV [DGKH, Q86XP1]",3.77

# Target: T9, TIAM2, Q8IVF5
# T9 sequence (Q8IVF5 885-986, limits assumed, looked up): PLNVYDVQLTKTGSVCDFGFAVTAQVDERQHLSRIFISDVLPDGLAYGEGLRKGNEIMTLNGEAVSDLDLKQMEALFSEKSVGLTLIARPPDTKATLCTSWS
# Experiment: holdup assay
# Design: key: below the threshold = too weak to quantify, mostly under pKd 3.1 to 4
# Conditions: plain residues with an end cap or a label only (N-terminal biotin on a linker: ado-ado)
row,Binder,pKd
1,"RRLPGKETMA [GRIK2, Q13002]",3.97
2,"LGRSTPQSEV [DGKH, Q86XP1]",below the threshold

# Target: T10, HTRA4, P83105
# T10 sequence (P83105 378-476, limits assumed, looked up): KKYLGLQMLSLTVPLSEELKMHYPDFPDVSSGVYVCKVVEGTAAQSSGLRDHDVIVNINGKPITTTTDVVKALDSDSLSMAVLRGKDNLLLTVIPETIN
# Experiment: holdup assay
# Design: key: below the threshold = too weak to quantify, mostly under pKd 3.1 to 4
# Conditions: plain residues with an end cap or a label only (N-terminal biotin on a linker: ado-ado)
row,Binder,pKd
1,"RRLPGKETMA [GRIK2, Q13002]",below the threshold
2,"LGRSTPQSEV [DGKH, Q86XP1]",below the threshold

# Target: T11, NHERF3_3, Q5T2W1
# T11 sequence (Q5T2W1 238-333, limits assumed, looked up): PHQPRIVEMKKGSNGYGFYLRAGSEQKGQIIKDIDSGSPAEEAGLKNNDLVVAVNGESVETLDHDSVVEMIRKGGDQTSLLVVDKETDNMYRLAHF
# Experiment: holdup assay
# Design: key: below the threshold = too weak to quantify, mostly under pKd 3.1 to 4
# Conditions: plain residues with an end cap or a label only (N-terminal biotin on a linker: ado-ado)
row,Binder,pKd
1,"RRLPGKETMA [GRIK2, Q13002]",below the threshold
2,"LGRSTPQSEV [DGKH, Q86XP1]",below the threshold

# Target: Inadl_3, Q8NI35
# Experiment: holdup assay
# Design: key: below the threshold = too weak to quantify, mostly under pKd 3.1 to 4
# Conditions: plain residues with an end cap or a label only (N-terminal biotin on a linker: ado-ado)
# Inadl_3, Q8NI35, sequence (Q8NI35 359-469): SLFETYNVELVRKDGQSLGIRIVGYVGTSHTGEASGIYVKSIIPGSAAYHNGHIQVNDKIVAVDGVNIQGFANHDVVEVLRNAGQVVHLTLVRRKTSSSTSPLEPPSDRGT
row,Binder,pKd
1,"RRLPGKETMA [GRIK2, Q13002]",below the threshold
2,"LGRSTPQSEV [DGKH, Q86XP1]",below the threshold

# Target: DLG5_1, Q8TDM6
# Experiment: holdup assay
# Design: key: below the threshold = too weak to quantify, mostly under pKd 3.1 to 4
# Conditions: plain residues with an end cap or a label only (N-terminal biotin on a linker: ado-ado)
# DLG5_1, Q8TDM6, sequence (Q8TDM6 617-713): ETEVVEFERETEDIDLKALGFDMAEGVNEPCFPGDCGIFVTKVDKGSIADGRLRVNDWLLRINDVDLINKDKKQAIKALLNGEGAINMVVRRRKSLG
row,Binder,pKd
1,"RRLPGKETMA [GRIK2, Q13002]",below the threshold
2,"LGRSTPQSEV [DGKH, Q86XP1]",below the threshold

# Target: GRIP2_3, Q9C0E4
# Experiment: holdup assay
# Design: key: below the threshold = too weak to quantify, mostly under pKd 3.1 to 4
# Conditions: plain residues with an end cap or a label only (N-terminal biotin on a linker: ado-ado)
# GRIP2_3, Q9C0E4, sequence (Q9C0E4 238-339): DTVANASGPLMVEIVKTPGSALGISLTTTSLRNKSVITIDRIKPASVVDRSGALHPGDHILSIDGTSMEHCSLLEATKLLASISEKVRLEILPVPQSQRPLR
row,Binder,pKd
1,"RRLPGKETMA [GRIK2, Q13002]",below the threshold
2,"LGRSTPQSEV [DGKH, Q86XP1]",below the threshold

# Target: GOPC, Q9HD26
# Experiment: holdup assay
# Design: key: below the threshold = too weak to quantify, mostly under pKd 3.1 to 4
# Conditions: plain residues with an end cap or a label only (N-terminal biotin on a linker: ado-ado)
row,Binder,pKd
1,"RRLPGKETMA [GRIK2, Q13002]",below the threshold
2,"LGRSTPQSEV [DGKH, Q86XP1]",3.87

# Target: T12, APBA1_2, Q02410
# T12 sequence (Q02410 742-832, limits assumed, looked up): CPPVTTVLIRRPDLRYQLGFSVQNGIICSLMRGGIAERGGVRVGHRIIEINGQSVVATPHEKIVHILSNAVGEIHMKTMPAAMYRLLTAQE
# Experiment: holdup assay
# Design: key: below the threshold = too weak to quantify, mostly under pKd 3.1 to 4
# Conditions: plain residues with an end cap or a label only (N-terminal biotin on a linker: ado-ado)
row,Binder,pKd
1,"RRLPGKETMA [GRIK2, Q13002]",below the threshold
2,"LGRSTPQSEV [DGKH, Q86XP1]",3.64

# Target: T13, MPDZ_12, O75970
# T13 sequence (O75970 1857-1958, limits assumed, looked up): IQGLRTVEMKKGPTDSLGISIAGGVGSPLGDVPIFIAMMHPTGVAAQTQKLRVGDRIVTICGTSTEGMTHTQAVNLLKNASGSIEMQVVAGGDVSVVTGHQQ
# Experiment: holdup assay
# Design: key: below the threshold = too weak to quantify, mostly under pKd 3.1 to 4
# Conditions: plain residues with an end cap or a label only (N-terminal biotin on a linker: ado-ado)
row,Binder,pKd
1,"RRLPGKETMA [GRIK2, Q13002]",below the threshold
2,"LGRSTPQSEV [DGKH, Q86XP1]",below the threshold

# Target: T14, PDZD7_3, Q9H5P4
# T14 sequence (Q9H5P4 857-944, limits assumed, looked up): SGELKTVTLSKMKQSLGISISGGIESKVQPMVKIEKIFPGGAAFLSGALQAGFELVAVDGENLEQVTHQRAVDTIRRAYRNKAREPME
# Experiment: holdup assay
# Design: key: below the threshold = too weak to quantify, mostly under pKd 3.1 to 4
# Conditions: plain residues with an end cap or a label only (N-terminal biotin on a linker: ado-ado)
row,Binder,pKd
1,"RRLPGKETMA [GRIK2, Q13002]",below the threshold
2,"LGRSTPQSEV [DGKH, Q86XP1]",4.4

# Target: ARHGEF12, Q9NZN5-2
# Experiment: holdup assay
# Design: key: below the threshold = too weak to quantify, mostly under pKd 3.1 to 4
# Conditions: plain residues with an end cap or a label only (N-terminal biotin on a linker: ado-ado)
# ARHGEF12, Q9NZN5-2, sequence (Q9NZN5 other isoform, or with tags, fused parts or gaps): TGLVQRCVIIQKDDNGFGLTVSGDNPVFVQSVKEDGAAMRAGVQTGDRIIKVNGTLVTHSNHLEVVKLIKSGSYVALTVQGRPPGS
row,Binder,pKd
1,"RRLPGKETMA [GRIK2, Q13002]",below the threshold
2,"LGRSTPQSEV [DGKH, Q86XP1]",4.18
